How the values were obtained:
[1] = target: His-HDAC2, recombinant (UniProt Q92769 1-488); assay: SPR
[2] = target: His-HDAC1, recombinant (human, UniProt Q13547 1-482); assay: SPR
Sequence of His-HDAC1, recombinant (Q13547 whole entry): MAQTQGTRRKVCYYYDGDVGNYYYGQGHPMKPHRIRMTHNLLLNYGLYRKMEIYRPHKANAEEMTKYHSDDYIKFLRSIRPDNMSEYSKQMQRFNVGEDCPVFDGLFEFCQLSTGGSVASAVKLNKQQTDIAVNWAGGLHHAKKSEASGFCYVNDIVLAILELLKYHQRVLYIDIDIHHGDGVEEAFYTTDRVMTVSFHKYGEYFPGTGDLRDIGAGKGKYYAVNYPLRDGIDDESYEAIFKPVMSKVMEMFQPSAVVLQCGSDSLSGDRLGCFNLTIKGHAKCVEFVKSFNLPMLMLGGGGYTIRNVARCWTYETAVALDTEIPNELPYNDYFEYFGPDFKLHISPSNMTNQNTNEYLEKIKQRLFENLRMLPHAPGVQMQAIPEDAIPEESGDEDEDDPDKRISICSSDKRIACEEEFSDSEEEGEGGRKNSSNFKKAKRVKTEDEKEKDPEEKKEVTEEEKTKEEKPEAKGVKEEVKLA

Sequence of His-HDAC2, recombinant (Q92769 whole entry): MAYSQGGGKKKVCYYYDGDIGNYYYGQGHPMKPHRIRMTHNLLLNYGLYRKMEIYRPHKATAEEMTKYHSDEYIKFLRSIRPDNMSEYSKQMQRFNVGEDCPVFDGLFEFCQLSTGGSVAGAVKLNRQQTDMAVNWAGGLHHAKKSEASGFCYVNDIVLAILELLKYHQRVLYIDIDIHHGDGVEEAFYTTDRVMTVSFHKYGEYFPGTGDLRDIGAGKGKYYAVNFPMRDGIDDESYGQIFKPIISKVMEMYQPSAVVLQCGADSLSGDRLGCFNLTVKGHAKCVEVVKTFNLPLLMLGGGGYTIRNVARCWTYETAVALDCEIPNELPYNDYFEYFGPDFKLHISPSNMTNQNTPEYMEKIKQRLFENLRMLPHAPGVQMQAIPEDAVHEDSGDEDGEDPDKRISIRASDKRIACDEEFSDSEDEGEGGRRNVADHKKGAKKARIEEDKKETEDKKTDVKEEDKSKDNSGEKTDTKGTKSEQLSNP

B1: GST-PFKL, recombinant (enzyme)
chain: MAAVDLEKLRASGAGKAIGVLTSGGDAQGMNAAVRAVTRMGIYVGAKVFLIYEGYEGLVEGGENIKQANWLSVSNIIQLGGTIIGSARCKAFTTREGRRAAAYNLVQHGITNLCVIGGDGSLTGANIFRSEWGSLLEELVAEGKISETTARTYSHLNIAGLVGSIDNDFCGTDMTIGTDSALHRIMEVIDAITTTAQSHQRTFVLEVMGRHCGYLALVSALASGADWLFIPEAPPEDGWENFMCERLGETRSRGSRLNIIIIAEGAIDRNGKPISSSYVKDLVVQRLGFDTRVTVLGHVQRGGTPSAFDRILSSKMGMEAVMALLEATPDTPACVVTLSGNQSVRLPLMECVQMTKEVQKAMDDKRFDEATQLRGGSFENNWNIYKLLAHQKPPKEKSNFSLAILNVGAPAAGMNAAVRSAVRTGISHGHTVYVVHDGFEGLAKGQVQEVGWHDVAGWLGRGGSMLGTKRTLPKGQLESIVENIRIYGIHALLVVGGFEAYEGVLQLVEARGRYEELCIVMCVIPATISNNVPGTDFSLGSDTAVNAAMESCDRIKQSASGTKRRVFIVETMGGYCGYLATVTGIAVGADAAYVFEDPFNIHDLKVNVEHMTEKMKTDIQRGLVLRNEKCHDYYTTEFLYNLYSSEGKGVFDCRTNVLGHLQQGGAPTPFDRNYGTKLGVKAMLWLSEKLREVYRKGRVFANAPDSACVIGLKKKAVAFSPVTELKKDTDFEHRMPREQWWLSLRLMLKMLAQYRISMAAYVSGELEHVTRRTLSMDKGF
[1]
  Kd: 9.5 nM
[2]
  Kd: 2.18 nM

— paper PMC12518634 (2025)
